Values belong to the molecule of their own block, whether it stands above or below them. Residues, ends and D or L forms follow the SMILES beside them. *: point of attachment. 5FAM = O=C1OC2(c3ccc(O)cc3Oc3cc(O)ccc32)c2ccc(C(=O)*)cc21
How the values were obtained:
pRb = target: T1, pRb (Homo sapiens, UniProt P06400); test: Fluorescence polarization titration binding of fluoro-labelled peptides with pRb
T1 sequence (P06400 373-771 limits assumed): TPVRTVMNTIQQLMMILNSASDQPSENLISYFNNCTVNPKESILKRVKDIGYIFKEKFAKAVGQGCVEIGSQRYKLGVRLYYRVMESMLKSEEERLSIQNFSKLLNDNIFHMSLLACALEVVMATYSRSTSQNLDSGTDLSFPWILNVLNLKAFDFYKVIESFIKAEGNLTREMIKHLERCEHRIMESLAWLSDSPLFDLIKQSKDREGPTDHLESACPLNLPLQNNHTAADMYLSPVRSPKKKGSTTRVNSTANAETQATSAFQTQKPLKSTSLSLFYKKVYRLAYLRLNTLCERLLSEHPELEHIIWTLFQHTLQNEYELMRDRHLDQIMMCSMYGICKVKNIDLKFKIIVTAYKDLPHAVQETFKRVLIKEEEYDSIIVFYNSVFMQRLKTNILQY
Source text: Synthetic peptides were synthesised and fluoro-tagged using either N-terminal labelling with 5 carboxyfluorescein succinimidyl ester or cysteine labelling with single isomer tetramethylrhodamine-5-maleimide. […] Fluorescein fluorescence measured at λexcite=485 and λemit=520 nm
Rhodamine fluorescence measured at λexcite=545 and λemit=580 nm
Measurements were made using BMG Fluorostar plate reader fitted with polarization optic. […] Data were fitted to a one site binding model using Graphpad prism.
pRb titration curves were performed in 96-well black plates, in a total reaction volume of 100 μL. Doubling dilutions from 10 μM stock of pRb were made in binding buffer (50 mM Tris HCl, pH7.0, 100 mM NaCl, 10 mM DTT, 0.05% NP-40) and 80 μL added in triplicate to wells. 20 μL of 2 μM fluoro-peptide was added and pipetted up and down to mix. The plate was read after 1 hr incubation at room temperature.

RbAB = target: T2, RbAB (Homo sapiens, UniProt P06400); test: RbAB
T2 construct: residues 372 to 589 of the A domain and 636 to 787 of the B domain; GST (with Prescission protease site) (N, cleaved yes); engineered thrombin site (LVPRGS) at the A-domain end of the A-B linker (C, cleaved yes); engineered thrombin site (LVPRGS) at the B-domain end of the A-B linker (N, cleaved yes); made in house; host or cells: E. coli
T2 sequence (P06400 whole entry, looked up): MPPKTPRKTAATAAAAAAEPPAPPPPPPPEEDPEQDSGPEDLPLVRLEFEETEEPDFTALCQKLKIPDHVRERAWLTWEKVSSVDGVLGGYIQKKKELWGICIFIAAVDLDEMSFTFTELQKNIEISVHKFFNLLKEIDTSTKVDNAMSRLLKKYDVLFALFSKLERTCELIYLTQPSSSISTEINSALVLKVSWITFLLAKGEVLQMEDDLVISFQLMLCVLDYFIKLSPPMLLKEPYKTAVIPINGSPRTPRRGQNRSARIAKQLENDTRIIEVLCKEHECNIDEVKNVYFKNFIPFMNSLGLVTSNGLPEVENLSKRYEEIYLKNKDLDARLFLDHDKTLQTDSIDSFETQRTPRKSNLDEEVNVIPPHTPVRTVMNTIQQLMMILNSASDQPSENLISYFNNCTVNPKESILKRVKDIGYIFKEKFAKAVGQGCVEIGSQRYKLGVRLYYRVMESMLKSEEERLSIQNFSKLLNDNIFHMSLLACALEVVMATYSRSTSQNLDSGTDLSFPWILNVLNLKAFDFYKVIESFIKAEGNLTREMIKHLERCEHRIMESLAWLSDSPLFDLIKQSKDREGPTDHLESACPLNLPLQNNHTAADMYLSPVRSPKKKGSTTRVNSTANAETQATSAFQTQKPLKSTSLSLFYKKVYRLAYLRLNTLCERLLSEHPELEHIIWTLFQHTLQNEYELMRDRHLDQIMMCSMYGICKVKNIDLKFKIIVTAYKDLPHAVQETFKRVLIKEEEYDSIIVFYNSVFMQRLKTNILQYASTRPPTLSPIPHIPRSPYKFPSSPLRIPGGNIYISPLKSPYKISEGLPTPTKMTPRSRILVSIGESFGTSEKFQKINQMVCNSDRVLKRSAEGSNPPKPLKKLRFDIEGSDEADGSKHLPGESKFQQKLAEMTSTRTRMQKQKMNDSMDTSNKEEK
Source text: (§1) Table printed on a drawing sheet, FIG. 2B
(§2) The patent's description of the figure: FIG. 2.
(§3) First copying reader's note: Binding constants of E2F fragments to the Rb constructs RbAB and RbABC; the error is printed in the same cell as the value.
Where the first naming reader finds the target: head: RbAB

RbABC = target: T3, RbABC (Homo sapiens, UniProt P06400); test: RbABC
T3 construct: His6-RbABC (RESIDUES 380-929); made in house; host or cells: E. coli
T3 sequence (P06400 whole entry, looked up): T2 sequence (P06400 whole entry, looked up)
Source text: as §1, §2, §3
Where the first naming reader finds the target: head: RbABC

[1] = target: T4, recombinant pRb A/B domains with E2F(409-426) peptide (Homo sapiens, UniProt P06400); test: Fluorescence polarization screen (384-well), fluorescein-E2F with pRb, screen controls; format: binding; settings: 1 μM pRb, 0.4 μM fluorescein-E2F
T4 sequence (P06400 373-771 limits assumed): T1 sequence (P06400 373-771 limits assumed)
Source text: Based on the crystal structure defined by the atomic co-ordinates in Annex 1, an FP screen was configured for the interaction of recombinant pRb A/B domains with E2F(409-426) peptide (see FIG. 1B). In addition, a second peptide binding site E7, see FIG. 1B), distant from the E2F binding pocket, was utilized as an internal control for non-specific inhibitors. Fluorophores in the form of fluorescein and rhodamine labelled peptides were synthesised and were used in a primary screen and hit confirmation.
The assay was optimised in 384-well black-plates (Matrix) and automated using a Beckman Fx liquid handling robot. 1 μM pRb in 50 mM Tris HCl, pH7.0, 100 mM NaCl, 10 mM DTT, 0.05% NP-40 was mixed with 40 μM compound (4% DMSO) and 0.4 μM fluorescein-E2F (final concentrations).
Polarized and depolarized signal from fluorescein-E2F with and without pRb present are shown in FIG. 5 (solid and open circles respectively). Specific disruption of binding by E2F protein and peptide are also shown. […] Addition of unlabelled-E2F at a concentration which gave 50% inhibition is clearly separated from the control populations. Hits were identified as compounds which reduced the polarization signal to less than mean-3sd of the fluorescein-E2F: pRb control.

Molecule: CC(C)C[C@H](NC(=O)[C@H](CCC(N)=O)NC(=O)[C@H](CCC(=O)O)NC(=O)[C@H](Cc1ccc(O)cc1)NC(=O)[C@H](CS)NC(=O)[C@H](Cc1ccc(O)cc1)NC(=O)[C@H](CC(C)C)NC(=O)[C@H](CC(=O)O)NC(=O)c1ccc2c(c1)C(=O)OC21c2ccc(O)cc2Oc2cc(O)ccc21)C(=O)N[C@@H](CC(N)=O)C(=O)O [Fluorescein-E7, N-terminal amide linkage Scarboxyfluorescein-E7, nonomer] (5FAM-DLYCYEQLN-OH; C-terminus assumed)
Kd (pRb): 0.13 ± 0.02 µM

Kd (RbAB): 0.16 ± 0.01 µM
Kd (RbABC): 0.1 ± 0.01 µM
Molecule: E2F(380-437): Synthetic peptide of E2F residues 380-437 (ADSLLEHVREDFSGLLPEEFISLSPPHEALDYHFGLEEGEGIRDLFDCDFGDLTPLDF; UniProt Q01094 380-437, looked up, fragment)

displacement of Fl-E2F from pRb (screen control) [1]: completely displaces F1-E2F
B1: E2F protein: E2F protein added as screen control that specifically disrupts binding; probably E2F(243-437) (protein, UniProt Q01094 243-437, looked up, fragment)
chain: LAYVTCQDLRSIADPAEQMVMVIKAPPETQLQAVDSSENFQISLKSKQGPIDVFLCPEETVGGISPGKTPSQEVTSEEENRATDSATIVSPPPSSPPSSLTTDPSQSLLSLEQEPLLSRMGSLRAPVDEDRLSPLVAADSLLEHVREDFSGLLPEEFISLSPPHEALDYHFGLEEGEGIRDLFDCDFGDLTPLDF
